Data on two substances can be found in patent US20170333524A1.

The target of test [1] is MART-1 (ELA peptide) peptide on HLA-A*02:01 (human). The test is described as follows: SPR, Biacore 3000; TCR amine-coupled to a CM5 chip, refolded ELA/HLA-A2 injected, 25 °C (Table 3, ELA); soluble, other. For orientation: SPR reads the build-up and loss of mass on a sensor chip optically.
The target is the same in test [2]. The test is described as follows: SPR, Biacore 3000; TCR on the chip, refolded pMHC injected. The row prints the target as 'AAG (SEQ ID NO 5', but its ratio 395.8 is taken against the WT ELA value 9.5, and Table 3 gives 0.024 under ELA); soluble, other.
For test [3] the target is unchanged. Nature of the test: SPR, Biacore 3000; TCR amine-coupled to a CM5 chip, refolded pMHC injected, 25 °C, 1:1 Langmuir fit; soluble, other.

For orientation: Kd means a measure of binding affinity in units of concentration. As to DMF5 TCR αD26Y/βL98W, the dissociation constant Kd in test [1] and in test [2] was 0.024 µM each time.
DMF5 TCR βL98W: in test [3], the dissociation constant Kd turned out to be 2.9 µM.
